Residue numbers refer to the chain shown, from its start. Numbers in names are those of the source.
B1: LyPls-PLD (lysoplasmalogen-specific phospholipase D) (Thermocrispum sp. RD004668; F211L) (protein)
chain: TTRTTDNPWLDARVLNMAHAGGENEAPANTLYAFKRAVKLGANMLELDVQSTKDDQLVVIHNATVDQTTDGTGKVRDLTFEQVHELDAAYNFIPGRHAVPGEPPESYPLRGVRTGEKKPPPGYQPSDFAIPKLADVLEAFPRTPINIEIKGTSDADIPSFLHNAKLLARLLKKTGRTDFIVTSLNDLAVAKFHLLAPDIPIAPGMAGLAAYFLLGVKPMHGTVALQIPVRYQGLEIATPEFIRRAHADGYAVHVWFSGTAPDDEATYNRIIDSCADGLMPAYPALLERILDERGIERPGRPGVDPCG
notes: recombinant from pET24/lpls-pld in E. coli BL21(DE3); purified on HisTrap HP
B2: LyPls-PLD (lysoplasmalogen-specific phospholipase D) (Thermocrispum sp. RD004668; M71G) (protein)
chain: B1 chain with M44G, L184F
notes: as for B1
B3: LyPls-PLD (lysoplasmalogen-specific phospholipase D) (Thermocrispum sp. RD004668; N173A) (protein)
chain: B1 chain with N146A, L184F
notes: as for B1
B4: LyPls-PLD (lysoplasmalogen-specific phospholipase D) (Thermocrispum sp. RD004668; W282G) (protein)
chain: B1 chain with L184F, W255G
notes: as for B1
B5: LyPls-PLD (lysoplasmalogen-specific phospholipase D) (Thermocrispum sp. RD004668) (protein)
chain: B1 chain with L184F
notes: as for B1
B6: LyPls-PLD (lysoplasmalogen-specific phospholipase D) (Thermocrispum sp. RD004668; F211T) (protein)
chain: B1 chain with L184T
notes: as for B1
B7: LyPls-PLD (lysoplasmalogen-specific phospholipase D) (Thermocrispum sp. RD004668; F211C) (protein)
chain: B1 chain with L184C
notes: as for B1

Each protein was assayed on CCCCCCCCCCCCCCCC/C=C\OC[C@@H](O)COP(=O)([O-])OCC[N+](C)(C)C (assay: released choline by choline oxidase/peroxidase colorimetric assay, Michaelis-Menten fit). Details: pH 8.0, 50 °C, 1 min, 2 mM CaCl2, substrate micelles.
Format: biochemical, Thermocrispum sp. RD004668
Text: (§1) released choline by choline oxidase/peroxidase colorimetric assay, Michaelis-Menten fit on LyPls-PLD (lysoplasmalogen-specific phospholipase D)

Protein	Km [µM]	kcat [s⁻¹]	kcat/Km [M⁻¹ s⁻¹]
B1	76.7 ± 12.6	21 ± 0.91	271000 ± 46000
B2	64.8 ± 4.18	57 ± 2.5	880000 ± 68500
B3	200 ± 42.3	42 ± 3.9	212000 ± 49000
B4	286 ± 51.7	10.5 ± 0.95	36000 ± 7250
B5	88.9 ± 8.76	122 ± 3.47	1.37e+06 ± 141000

These proteins were tested on CCCCCCCCCCCCCCCCOC[C@@H](O)COP(=O)([O-])OCC[N+](C)(C)C in the same assay as above. Details: pH 8.0, 50 °C, 1 min, 2 mM CaCl2, substrate micelles.
Format: biochemical, Thermocrispum sp. RD004668
Text: as §1

Protein	Km [µM]	kcat [s⁻¹]	kcat/Km [M⁻¹ s⁻¹]
B1	26.8 ± 8.55	187 ± 6.3	6.97e+06 ± 2.24e+06
B2	69.3 ± 10.2	72 ± 2.9	1.04e+06 ± 159000
B6	40.6 ± 5.49	205 ± 8.9	5.06e+06 ± 720000
B3	110 ± 17.1	106 ± 4.0	965000 ± 153000
B7	52.2 ± 9.44	207 ± 15	3.96e+06 ± 769000
B4	71.7 ± 5.26	4.4 ± 0.082	60900 ± 4630
B5	56.4 ± 16.9	74 ± 4.9	1.3e+06 ± 400000
